Substrate in series [1]: O=C(O)[C@H](O)[C@@H](O)[C@H](O)[C@H](O)COP(=O)(O)O
Nature of the series: inorganic phosphate release (molybdate), Michaelis-Menten fit, GFP control subtracted. In kind it is biochemical, Homo sapiens. To be noted: 50 mM Mops pH 6.5, 25 mM CaCl2, 0.5 mM MnCl2, 2.5 mM EDTA, 37 °C, alamethicin, apparent, cell lysate.

Substrate in series [2]: O=P(O)(O)OC[C@@H](O)[C@@H](O)[C@H](O)[C@@H](O)CO
Described as above. Format: biochemical, Homo sapiens. To be noted: 50 mM Mops pH 6.5, 25 mM CaCl2, 0.5 mM MnCl2, 2.5 mM EDTA, 37 °C, alamethicin, apparent, cell lysate.

B1: human recombinant G6PC3 (glucose-6-phosphatase-β) (Homo sapiens) (protein)
chain: MESTLGAGIVIAEALQNQLAWLENVWLWITFLGDPKILFLFYFPAAYYASRRVGIAVLWISLITEWLNLIFKWFLFGDRPFWWVHESGYYSQAPAQVHQFPSSCETGPGSPSGHCMITGAALWPIMTALSSQVATRARSRWVRVMPSLAYCTFLLAVGLSRIFILAHFPHQVLAGLITGAVLGWLMTPRVPMERELSFYGLTALALMLGTSLIYWTLFTLGLDLSWSISLAFKWCERPEWIHVDSRPFASLSRDSGAALGLGIALHSPCYAQVRRAQLGNGQKIACLVLAMGLLGPLDWLGHPPQISLFYIFNFLKYTLWPCLVLALVPWAVHMFSAQEAPPIHSS
notes: full-length G6PC3 cDNA (universal human cDNA) in pEGFP-N1 (XhoI/EcoRI), GFP-G6PC3 fusion, overexpressed in HEK293T; alamethicin-permeabilized cell lysate
B1: in series [1], the Km turned out to be 8.22 ± 1.4 mM and the Vmax worked out at 0.19 µmol/min/mg. For the same protein, in series [2], the Km is listed as 5.11 ± 0.7 mM and the Vmax was found to be 1.66 µmol/min/mg.

For the origin of these results see PMC11788743, “Biochemical characterization of the human ubiquitous glucose‐6‐phosphatase in neutrophil granulocytes” (FEBS Open Bio, 2024).
